This assay concerns the target Ssa1 (Hsp70) (Saccharomyces cerevisiae, UniProt P10591 1-642). Nature of the assay: cross-linking.

The values below come from paper doi:10.1101/2021.06.06.447241 (bioRxiv, 2021).

Chain of Ssa1 (Hsp70) (P10591 whole entry): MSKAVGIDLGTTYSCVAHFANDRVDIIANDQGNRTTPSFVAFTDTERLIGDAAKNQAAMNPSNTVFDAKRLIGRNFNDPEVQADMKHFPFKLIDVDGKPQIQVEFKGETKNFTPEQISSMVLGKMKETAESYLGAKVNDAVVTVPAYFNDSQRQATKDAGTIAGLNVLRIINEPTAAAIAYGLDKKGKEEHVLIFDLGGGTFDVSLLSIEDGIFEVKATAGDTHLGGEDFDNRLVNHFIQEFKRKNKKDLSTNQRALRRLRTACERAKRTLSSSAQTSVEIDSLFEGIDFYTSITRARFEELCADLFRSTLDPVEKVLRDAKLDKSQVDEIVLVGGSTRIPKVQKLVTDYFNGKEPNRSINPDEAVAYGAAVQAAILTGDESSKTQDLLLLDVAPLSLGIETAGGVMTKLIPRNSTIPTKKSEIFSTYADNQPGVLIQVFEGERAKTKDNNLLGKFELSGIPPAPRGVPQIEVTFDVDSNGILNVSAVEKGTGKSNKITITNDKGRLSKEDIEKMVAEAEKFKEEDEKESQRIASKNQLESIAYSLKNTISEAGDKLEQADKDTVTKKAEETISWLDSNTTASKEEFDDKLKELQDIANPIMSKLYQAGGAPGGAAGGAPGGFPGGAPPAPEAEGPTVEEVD

B1: Ydj1 (Hsp40) (natural protein)
chain: MVKETKFYDILGVPVTATDVEIKKAYRKCALKYHPDKNPSEEAAEKFKEASAAYEILSDPEKRDIYDQFGEDGLSGAGGAGGFPGGGFGFGDDIFSQFFGAGGAQRPRGPQRGKDIKHEISASLEELYKGRTAKLALNKQILCKECEGRGGKKGAVKKCTSCNGQGIKFVTRQMGPMIQRFQTECDVCHGTGDIIDPKDRCKSCNGKKVENERKILEVHVEPGMKDGQRIVFKGEADQAPDVIPGDVVFIVSERPHKSFKRDGDDLVYEAEIDLLTAIAGGEFALEHVSGDWLKVGIVPGEVIAPGMRKVIEGKGMPIPKYGGYGNLIIKFTIKFPENHFTSEENLKKLEEILPPRIVPAIPKKATVDECVLADFDPAKYNRTRASRGGANYDSDEEEQGGEGVQCASQ
As for B1, the binding result was “binds”.
